Data published in doi:10.1101/2022.08.03.502719.
pKd: −log10 of the molar value.

How the values were obtained:
[1] = molecular target: VL9 peptide HLA-E single chain trimer (soluble) (human); experiment: SPR
[2] = molecular target: WN peptide HLA-E single chain trimer (soluble) (human); experiment: SPR

Row | pKd [1] | pKd [2] | Substance
1 | 5.09 | 4.38 | CD94/NKG2A single-chain fusion protein (NKG2A ectodomain-GGSGGS-CD94 ectodomain), soluble, for SPR (from UniProt P26715 94-233; Q13241 32-179) (receptor)
2 | 4.67 | 4.76 | CD94/NKG2C single-chain fusion protein (NKG2C ectodomain-GGSGGS-CD94 ectodomain), soluble, for SPR (from UniProt P26717 94-231; Q13241 32-179) (receptor)
